Reference: patent US20030092613A1, “Alpha7 nicotinic receptor peptides as ligands for beta amyloid peptides” (priority 2000, published 2003)

Biological target: T1, 125I-α-bungarotoxin, P60615
T1 chain: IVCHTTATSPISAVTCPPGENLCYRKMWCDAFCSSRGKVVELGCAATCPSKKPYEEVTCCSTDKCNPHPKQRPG
Assay: not given

Row | Binder | IC50 [µM]
1 | Ac-SERFAECCKEP-NH2 (cysteine pairing not given here) | > 100
2 | Ac-SERFYACCKEP-NH2 (cysteine pairing not given here) | 9.5
3 | Ac-SERFYEACKEP-NH2 | > 100
4 | Ac-SERFYECAKEP-NH2 | > 100
5 | Ac-SERFYECCAEP-NH2 (cysteine pairing not given here) | 1.3
6 | Ac-AERFYECCKEP-NH2 (cysteine pairing not given here) | 15
7 | Ac-SERFYECCKAP-NH2 (cysteine pairing not given here) | > 100
8 | Ac-SERFYECCKEA-NH2 (cysteine pairing not given here) | > 100
9 | Ac-IPGKRSERFYECCKEPYPDV-NH2 (cysteine pairing not given here) | 0.2
10 | Ac-SERFYECCKEP-NH2 (cysteine pairing not given here) | 19
11 | Ac-SARFYECCKEP-NH2 (cysteine pairing not given here) | 8.4
12 | Ac-SEAFYECCKEP-NH2 (cysteine pairing not given here) | 9.6
13 | Ac-SERAYECCKEP-NH2 (cysteine pairing not given here) | > 100

Biological target: β-amyloid1-42, P05067
Assay: cell-based or functional assay

Row | Binder | ACh rel % Inh @ 100 µM [%] | Inh ACh rel IC50 [µM]
14 | Ac-SERFAECCKEP-NH2 (cysteine pairing not given here) | 18 | > 10
15 | Ac-SERFYACCKEP-NH2 (cysteine pairing not given here) | 14 | > 10
16 | Ac-SERFYEACKEP-NH2 | 19 | > 10
17 | Ac-SERFYECAKEP-NH2 | 85 | 0.165
18 | Ac-SERFYECCAEP-NH2 (cysteine pairing not given here) | 19 | > 10
19 | Ac-AERFYECCKEP-NH2 (cysteine pairing not given here) | 15 | > 10
20 | Ac-SERFYECCKAP-NH2 (cysteine pairing not given here) | 75 | 0.426
21 | Ac-SERFYECCKEA-NH2 (cysteine pairing not given here) | 59 | < 10
22 | Ac-GIPGKRSERFYECCK-NH2 (cysteine pairing not given here) | 73 | 1.21
23 | Ac-IPGKRSERFYECCKEPYP-NH2 (cysteine pairing not given here) | 79 | 0.71
24 | Ac-IPGKRSERFYECCKEPYPDV-NH2 (cysteine pairing not given here) | 73 | 0.626
25 | Ac-SERFYECCKEP-NH2 (cysteine pairing not given here) | 89 | 0.125
26 | Ac-SARFYECCKEP-NH2 (cysteine pairing not given here) | 13 | > 10
27 | Ac-SEAFYECCKEP-NH2 (cysteine pairing not given here) | 70 | 0.277
28 | Ac-SERAYECCKEP-NH2 (cysteine pairing not given here) | 14 | > 10
